Measured values: article PMC2191786

Target: B7-1 on stably transfected B7-1+ Chinese hamster ovary (CHO) cells (human) (UniProt P33681)
Assay: ELISA

Sequence of UniProt P33681 (P33681 35-288): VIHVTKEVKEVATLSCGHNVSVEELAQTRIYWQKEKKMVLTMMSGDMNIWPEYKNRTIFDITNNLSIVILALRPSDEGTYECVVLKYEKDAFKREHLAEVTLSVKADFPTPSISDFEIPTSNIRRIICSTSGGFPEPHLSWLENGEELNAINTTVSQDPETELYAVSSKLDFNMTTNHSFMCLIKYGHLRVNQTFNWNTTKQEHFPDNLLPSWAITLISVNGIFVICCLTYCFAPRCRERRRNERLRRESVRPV

Row | Substance | percentage of B7-1 binding activity (of CTLA4Ig) [%]
1 | CTLA4Ig M99A (Fc fusion) | < 0.1
2 | CTLA4Ig P103A (Fc fusion) | < 0.1
3 | CTLA4Ig Y104A (Fc fusion) | < 0.1
4 | CTLA4Ig P102A (Fc fusion) | 3
5 | CTLA4Ig Y100A (Fc fusion) | 3
